Experiments:
[1] = biological target: recombinant mature human GDF-15 protein (as expressed in Baculovirus-transfected HighFive insect cells) (human) (UniProt Q99988); test: SPR (Biorad ProteOn XPR36), KD=koff/kon
[2] = biological target: recombinant mature human GDF-15 protein (as expressed in Baculovirus-transfected HighFive insect cells) (human) (UniProt Q99988); test: SPR (Biorad ProteOn XPR36, GLC chip), GDF-15 immobilised, antibody as analyte, 1:1 Langmuir fit, 25 C
[3] = biological target: recombinant mature human GDF-15 protein derived from expression in E. coli (human) (UniProt Q99988); test: SPR (Biorad ProteOn XPR36), E. coli GDF-15 immobilised, antibody as analyte

Kd [1]: 790 pM
koff [2]: 0.00043 s⁻¹
kon [2]: 540000 M⁻¹ s⁻¹
deviation of rate constants against GDF-15 derived from insect cells [3]: 45%
fold difference of affinity values against GDF-15 derived from insect cells [3]: < 2 fold
Substance: monoclonal anti-human GDF-15 mAb-B1-23 (antibody)

Reference: patent publication US20230408521A1
